Source: patent US20240288440A1 (MACFARLANE BURNET INSTITUTE FOR MEDICAL RESEARCH AND PUBLIC …, published 2024)

Biological target: SARS-COV-2 spike protein, ancestral Hu-1, on retroviral pseudotyped virus (SARS-COV-2, UniProt P0DTC2 14-1273)
Test: cell-based or functional assay

B1: CB6-dIgA2 (dimeric chimeric IgA2 of monoclonal antibody CB6 with J chain) (antibody)
heavy: ASEVQLVESGGGLVQPGGSLRLSCAASGFTVSSNYMSWVRQAPGKGLEWVSVIYSGGSTFYADSVKGRFTISRDNSMNTLFLQMNSLRAEDTAVYYCARVLPMYGDYLDYWGQGTLVTVSSASTKGPSVFPLAPSSKSTSGASPTSPKVFPLSLDSTPQDGNVVVACLVQGFFPQEPLSVTWSESGQNVTARNFPPSQDASGDLYTTSSQLTLPATQCPDGKSVTCHVKHYTNPSQDVTVPCPVPPPPPCCHPRLSLHRPALEDLLLGSEANLTCTLTGLRDASGATFTWTPSSGKSAVQGPPERDLCGCYSVSSVLPGCAQPWNHGETFTCTAAHPELKTPLTANITKSGNTFRPEVHLLPPPSEELALNELVTLTCLARGFSPKDVLVRWLQGSQELPREKYLTWASRQEPSQGTTTFAVTSILRVAAEDWKKGDTFSCMVGHEALPLAFTQKTIDRLAGKPTHVNVSVVMAEVDGTCY
light: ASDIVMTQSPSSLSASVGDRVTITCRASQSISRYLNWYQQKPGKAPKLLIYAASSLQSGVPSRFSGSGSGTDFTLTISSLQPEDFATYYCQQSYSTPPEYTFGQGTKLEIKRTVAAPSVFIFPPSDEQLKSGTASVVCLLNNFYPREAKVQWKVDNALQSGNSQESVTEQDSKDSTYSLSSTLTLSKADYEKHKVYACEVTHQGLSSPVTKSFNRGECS
J chain: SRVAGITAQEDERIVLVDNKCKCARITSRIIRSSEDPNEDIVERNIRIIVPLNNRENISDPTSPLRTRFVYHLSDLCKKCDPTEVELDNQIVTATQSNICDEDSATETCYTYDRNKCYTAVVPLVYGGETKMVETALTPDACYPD
In the case of B1, the “IC50 of pseudotyped virus entry, fold against the IgG version” value is reported as 2.5 fold.
